Test results reported in publication doi:10.1101/2025.03.07.642083.

Molecular target: T1, ToAubZL (Aureochrome1 bZIP+LOV) (Thalassiosira oceanica, UniProt K0SY93 276-520)
T1 sequence: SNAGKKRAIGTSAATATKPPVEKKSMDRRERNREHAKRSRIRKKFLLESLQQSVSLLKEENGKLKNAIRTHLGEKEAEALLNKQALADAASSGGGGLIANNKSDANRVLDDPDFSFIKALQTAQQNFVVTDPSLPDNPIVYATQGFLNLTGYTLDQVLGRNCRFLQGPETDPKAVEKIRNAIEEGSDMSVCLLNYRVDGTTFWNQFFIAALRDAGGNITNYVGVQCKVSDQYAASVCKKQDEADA
Test: EMSA

B1: Aureo-box substrate DNA (dsDNA)
DNA 1: TGTAGCGTCTGACGTGGTTCCCAC
DNA 2: GTGGGAACCACGTCAGACGCTACA
B1: binds.
